From publication PMC12554751 (Frontiers in Immunology, 2025)

Target: T1, Aβ aggregates in human Alzheimer's disease brain (Homo sapiens (endogenous, Alzheimer's …, UniProt P05067))
T1 construct: Aβ peptide of the amyloid precursor protein, aggregated in patient brain; also called Alzheimer's brain lysates; Aβ plaques; source: endogenous, human Alzheimer's disease brain (hippocampus homogenates; paraffin-embedded frontal cortex sections)
Assay: immunostaining of cells or tissue; immunohistochemistry of paraffin-embedded frontal cortex of Alzheimer's disease patients with moderate cerebral amyloid angiopathy; Digoxigenin-tagged antibody applied 1 h; HRP polymer, DAB
Conditions: one partner purified

- binding result: binds
B1: 97A34 tagged with Digoxigenin (antibody, V domains shown)
VH: EVQLVESGGGLVQPGGSLRLSCAASGYNIKATYIHWVRQAPGKGLEWVARIYPASGATRYADSVKGRFTISADTSKNTAYLQMNSLRAEDTAVYYCARDGYDGSYFVGYDYNDFYDYWGQGTLVTVSS
VL: DIQMTQSPSSLSASVGDRVTITCRASQNVAYAVTWYQQKPGKAPKLLIYSASFLYSGVPSRFSGSRSGTDFTLTISSLQPEDFATYYCQQHSTYPPTFGQGTKVEIK
notes: heavy chain constant region; light chain constant region; Detected with a Human-on-Human HRP-Polymer kit through mouse anti-Digoxigenin; I surmise the human IgG1 kappa form
